Results: the RNAGym collection of RNA variant scans (doi:10.1073/pnas.2313332121)

B1: TPR t1 (parent)
chain: GACCAAUCUGCCCUCAGAGCUCGAGAACAUCUUCGGAUGCAGAGGAGGCAGGCUUCGGUGGCGCGAUAGCGCCAACGUCCUCAACCUCCAAUGCAUCCCACCACAUGAUGAUGCCUGAAGAGCCUUGGUUUUUUG

Variants of: B1
Assay: polymerase ribozyme fitness, log enrichment relative to wild type (log ratio); higher = more active; in vitro selection for triplet polymerase activity
Summary of the method: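 Both subunits of a heterodimeric triplet polymerase ribozyme were given their own mutant library, built by PCR and transcribed. Each library was annealed with a biotinylated primer, the partner subunit and triplets, incubated frozen at −7 °C, and its extended constructs gel-excised, captured on streptavidin beads and amplified by RT-PCR, all in one round done in triplicate. Fitness is the logarithm of genotype enrichment relative to wild-type enrichment, with replicates averaged by inverse-variance weighting. That logarithm is base 2, and Illumina-sequenced genotypes needed ≥10 input reads and ≥1 read per output.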

Point of comparison: GACCAAUCUGCCCUCAGAGCUCGAGAACAUCUUCGGAUGCAGAGGAGGCAGGCUUCGGUGACGCGAUAGCGCCAACGUCCUCAACCUCCAAUGCAUCCCACCACAUGAUGGUGCCUGAAGAGCCUUGGUUUUUUG [G61A A111G], “polymerase ribozyme fitness (log ratio)” value 0.971. Against it:
- GACCAAUCUGCCAUCAGAGCUCGAGAACAUCUUCGGAUGCAGAGGAGGCAGGCUUCGGUGGCGCGAUAGCGCCAACGUCCUCAACCUGCAAUGCAUCCCACCACGUGAUGAUGCCUGAAUAGCCUUGGUUUUUUG [C13A C88G A105G G120U] — lower, -4.2
- GACCAAUCUGCCCUCAGAGCUCGAGAACAUCUUCGGAUGCAGAGGGGGCAGGCUUCGGUGGCGCGAUAGCGCCAACGUCCUCAACCUCCAAUGCAUCCCACCACAUGAUGAUGCCUGAAGAGCCUUGGUUUUUUG [A46G] — lower, -0.119
- GACCAAUCUGCCCUCAGAGCUGGAGAACAUCUUCGGAUGCAGAGGAGGCAGGCUUCGGUGACGCGAUAGCGCCAACGUCCUCAACCUCCAAUACAUCCCACCACAUGAUGAUGCCUGAAGAGCCUUGGUUUUUUG [C22G G61A G93A] — lower, -3.75
- GACCAAUCUGCCCUCAGAGCUCGAGAACAUCUUCGGAUGCAGAGGAGGCAGGCUUCGGUGGCCCGAUAGCGCCAACGUCCUCAACCUCCAAUGCAUCCCACCACAUGAUGAUACCUGAAGAGCCUUGGUUUUUUG [G63C G113A] — lower, -2.11
- GACCAAUCUGCCCUCAGAGCUCGAGAUCAUCUUCGGAUGCAGAGGAGGCAGGCUUCGGUGGCGCGAUAGCGCCAACGUCCUCAACCUCCAAUGCAUCCCACCACAUGAUGAUGCCUGAAGCGCCUUGGUUUUUUG [A27U A121C] — lower, -0.527
- GACCAAUCCGCCCUCUGAGCUCGAGAACAUCUUCGGAUGCAGAGGAGGCAGUCUUCGGUGGCGCGAUAGCGCCAACGUCCUCAACCUCCAAUGCAUCCCACCACAUGAUGAUGCCUGAAGAGCCUUGGUUUUUUG [U9C A16U G52U] — lower, -0.423
- GACCAAUCUGCCCUCAGAGCUCGAGAACAUCUUCGGAUGCAGAGGAGGCAGGCUUCGGUGGCGCGAUAGUGCCAACGUCCUCAACCUCCAAUGCAUCCCACCGCAUGAUGAUGCCUGAAGAGCCUUGGUUUUUUG [C70U A103G] — lower, -4.3
- GACCAAUCUGCCCUCAGAGCUCGAGCACAUCUUCGGAUGCAGAGGAGGCAGGCUUCGGUGGCGCGAUACCGCCAACGUCCUCAACCUCCAAUGCAUCCCACCACAUGAUGAUGCCUGAAGAGCCUUGGUUUUUUG [A26C G69C] — lower, -7.17
- GACCAAUCUGCCCUCAGAGCUCGAGAAGAUCUUCGGAUGCAGAGGAGGCAGGCUUCGGUGGCACGAUAGCGCCAACGUCCUCAACCUCCAAUUCAUCCCACCACAUGAUGAUGACUGCAGAGCCUUGGUUUUUUG [C28G G63A G93U C114A A118C] — lower, -7.47
- GAUCAAUCUGCCCUCAGAGCUCGAGAACAUCUUCGGAUGUAGGGGAGGCAGGUUUCGGUGGCGCGAUAGCGCCAACGUCCUCAACCUCCAAUGCAUCCCACCACAUGAUGAUGCCUGAAGAGCUUUGGUUUUUUG [C3U C40U A43G C53U C124U] — lower, -1.48
- GACCAAUCUGCUCUCAGAGCUCGAGAACAUCUUCGGAUGCAGAGGAGGCAGUGUUCGGUGGCGCGAUAGCGCCAACGGCCUCAACCUCCAAUGCAUCCCACCACAUGAUGAUGCCUGAAGAGCCUUGGUUUUUUG [C12U G52U C53G U78G] — lower, -0.0807
- GACCAAUCUACCCUCAGAGCUCGAGAACAUCUUCGGAUGCAGAGUAGGCAGGCUUCGGUGGCGCGAUAGCGCCAACGUCCUCAACCUCCAAUGCAUCCCACCACAUGAUGAUACCUGAAGAGCCUUGGUUUUUUG [G10A G45U G113A] — lower, -1.45
- GACCAAUCUGCCCUCAGAGCUCGAGAACACCUUCGGAUACAGAGGAGGCAGGCUUCUGUGGCGCGAUAUCGCCAACGUCCUCAACCUCCAAUGCAUCCCACCACAUGAUGAUGCCUGAAGAGCCUUGGUGUUUUG [U30C G39A G57U G69U U130G] — lower, -5.29
- GACCAAUCUGCCCUCAGAGCUCGAGAACAUCUUCGGAUGCAGAGGAGGCAGGCUUCGGUGGCGCGAUAGCGCCAACGUCCUCAACCUCCAAUGCGUCCCACCACAUGAUUAUGCCUGAAGAGCCUUGGUGUAUUG [A95G G110U U130G U132A] — lower, -1.43
- GACCAAUCUGCCCUCAGAGCUCGAGAACAUCUUCGGAUGUAGAGGAGGCAGGCUUCGGUGGGGCGAUAGCGCCAACGUCCUCAACCUCCAAUGCAUCCCACCACAUGAUGAUGCCUGAAGAGCCUUGGUUUUUUG [C40U C62G] — lower, -3.29
- GACCAAUCUGCCCUCAGAGCUCGAGAACAUCUUCGGAUGCAGAGGAGGCAGGCUUCGGUGGCGCGAUAGCGCCAACGUCCUCAACCUCCAAUGCAUCCCACCACAUGAUGAUGCCUGAAGAGCCUGGGUUUUUUG [U126G] — lower, -1.7
- GACCAAUCUGCCCUCAGAGCUCGAGAACAUCUUCGGAUGCAGAGGAGGCAGGCUUCGGUGGCGCGAUAGCGCCUACUUCCUCAACCUCCAAUGCAUCUCACGACAUGAUGAUGCCUGAAGAGCCUUGGUUUUUUG [A74U G77U C98U C102G] — lower, -6.8
- GACCAAUCUGCCCUCAGAGCUCGAGAACAUCUUCGGAUGCAGAGGAGGCAGGCUUCGGUGGCGCGAUAGCGCCAACGUCCUAAACCUCCAAUGCAUCCCACCACAUGAUGAAGGCUGAAGAGCCUUGGUUUUUUG [C82A U112A C114G] — lower, -0.66
- GACCAAUCUGCCCUCAGAGCUCGAGAACAUCUUCGGAUGCAGAGGAGGCAGGCUUCGGUGGCGCGAUAGCACCAACGUCCUCAACCUCCAAUGCAUCCGCCCACAUGAUGAUGCCUGAAGAGACUUGGUUUUUUG [G71A C99G A100C C123A] — lower, -8.12
- GACCAAUCUGGCCUCAGAGCUCGAGAAGAUCUUCGGAUGCAGAGGAGGCAGGCUUCGUUGGCGCGAUAGCGCCAACGUCCUCAACCUCCAAUGCAUCCCACCACAUGAUGAUGCCUGAAGAGCCUUGGUUUUUUG [C11G C28G G58U] — lower, -2.76
- GACCAAUCUGCCCUCAGAGCUCGAGAACAUCUUCGGAUGCAGAGAAGGCAGGCUUCGGUGGCACGAUAGCGCCAACGUCCUCAACCUCCAAUGCAUCCCACCACAUGAUGAUGCCUGAAGAGCCUUGGUUUUUUG [G45A G63A] — lower, -1.39
- GACCAAUCUGCCCUCAGAGCUCGAGAACAUCUUCGGAUGGAGAGGAGGCAGGCUUCGGUGGCGCGAUAACGCCAACGUCCUCACCCUCCAAUGCAUCCCACCACAUGAUGAUGCCUGAAGAGCCUUGGUUUUUUG [C40G G69A A84C] — lower, -3.83
- GACCAAUCUGCCCUCAGAGCUCGAGAACAUCUUCGGAUGCAGAGGAGGCAGGCUUCGGUGGCGCGAUAGCGCCAAGGACCACAACCUCGAAUGCAUCCCACCACAUGAUGAUGCCUGAUGAGCCUUGGUUUUUUG [C76G U78A U81A C89G A119U] — lower, -3.52
- GACCAAUCUGCCCUCAGAGCUCGAGAACAUCUUCGGAUGCAGACGAGGCAGGCUACGGUGGCGCGAUAGUGCCAACGUCCUCAACCUGCAAUGCAUCCCACCACAUGAUGAUGCCUCAAGAGCCUUGGUUUUUUG [G44C U55A C70U C88G G117C] — lower, -6.75
- GACCAAUCUGCCCUCAGAGCUCGAGAACAUCUUCGGAUGCAGAGGAUGCAGGCUUUGGUGGCGCGAUAGCGCCAACGUCCUCAACCUCCAAUGCAUCCCACCACAUGAUGAUGCCUGAAGAGCCUUGGUUUUUUG [G47U C56U] — lower, -1.38
- GACCAAUCUGCCCUCAGAGCUCGAGAACAUCUUCGGAUGCAGAGAAGGCAGGCUUCGGUGGCGCGAUAGCGUCAACGUCCUCAACCUCGACUGCAUCCCACCACAUGAUGAUGCCUGAAGAGCCUUGGUUUUUUG [G45A C72U C89G A91C] — lower, -1.81
- GACCAAUCUCCCCUCAGAGCUCGAGAACAUCUUCGGAUGCAGAGGAGGCAAGCUUCGGUGGCGCGAUAGCGCCAACGUCCUCAACCUCCAAUGCAUCCCACCACAAGAUGAAGCCUGAAGAGCCUUGGUUUUUUG [G10C G51A U106A U112A] — lower, -5.36
- GACCAAUCUGCCCUCAGAGCUCGAGAACAUCUUCGGAUGCAGAGGAGGAAGGCUUCGGUGGCGCGAUAGCGUCAACGUCCUCAACCUCCAAUGCAUGCCACCACAUGAUGAUGCCUGAAGAGCCUUGCUUUUUUG [C49A C72U C97G G128C] — lower, -6.74
- GACCACUCUGCACUCAGAGCUCGAGAACAUCUUCGGAUGCAGAGGAGGCAGGCUUCGGUGGCGCGAUAGCGCCAACGUCCUCAACCUCCAAUGCAUCCCACCACAUGAUGAUGCCUGAAGAGCCUUGGUUUUUUG [A6C C12A] — lower, -1.61
- GACCAAUCUGCCCUCAGAGCUCGAGAACAUCUUCGGAUGCAGAGGAGGCAGGCUUCUGUGGCGCGAUAGCGCCAACGUCCUCAACCGCCAAUGCAUCCCACCACAUGAUGAUACCUGAAGAGUCUUGGUUUUUUG [G57U U87G G113A C123U] — lower, -1.98
- GACCAAACUGCCCUCAGAGCUCGAGAACAUCUUCGGAUGCAGAGGAGGCAGGCUUCGGUGGCGCGAUACCGCCAACGUCCUCAACCUCCAAUGCGUCCCACCACAUGAUGAUGCCUGAAGAGCCUUGGUUUUUUG [U7A G69C A95G] — lower, -0.796
- GACCAAUCUGCCCUCAGAGCUCGAGAACAUCUUCGGAUGCAGAGGAGGCAGGCUUCGGUGGCGCGAUAGCGCCAACGUCCUCAACGUCCAAUGCAUCCCACCACAUGAUAAUUCCUGAAGAGCAUUGGUUUUUUG [C86G G110A G113U C124A] — lower, -6.69
- GACCAAUCUGCCCUCAGAGCUCGAGAACAUCUUCGCAUGAAGAGGAGGCAGGCUUCGGUGGUGCGAUAGCGUCAACGUCCUCAACCUCCAAUGCAUCCCACCACAUGAUGAUGCCUGAAGAGCCUUGGUUUUUUG [G36C C40A C62U C72U] — lower, -4.22
- GACAAAUCUGCCCUCAGAGCUCGAGAACAUCUUCGGAUGCAGAGGAGGCAGGCUUCGGUGGCGCGAUAGCGCCCACGUCCUCAACCUCCAAUGCAUCCCACCACAUGAUGAUGCCUGAAGAGGCUUGGUUUUGUG [C4A A74C C123G U133G] — within 0.2 log units, 0.795
- GACCAAUCUGCCCUCAGAGCUCGAGAACAUCUUCGGAUGCAGAGGAGGCAGGCUUCGGUGGCGCGAUACCGCCAACGUCCUCAACCUCCAAUGCAUCCCACCACAUGAUGAUGCCUGAAGAGCUUUGGUUUUUUG [G69C C124U] — lower, 0.177
- GACCAAUCUGCCCUCAGAGCUCGAGAACAUCUUCGGAUGCAGAGGAGGGAGGCUUCGGUGGCGCGAUAGCGCCAACGUCCUCAACCUCCCAUGCAUCCCACCACAUGAUGAUGCCUGAAGAGCCUUGGUUUUUUG [C49G A90C] — lower, -3.22
- GACCAAUCUGCCCUCAGAGCUCGAGAACAUCUUCGGAUGCAGAGGAGGCCGGCUUCGGUGUCGCGAUAGCGCCAACGUCCUCAACCUCCAAUGCAUCCCACCACAUGAUGAUGCCUGAAGAGCCUUGGUUUUUUG [A50C G61U] — lower, -0.0844
- GACCAAUCUGCCCUCAGAUCUCGAGAACAUCUUCGGAUUCAGAGGAGACAGGCUUCGGUGGCGCGAUAGCGCCAACGUCCUCAACCUCCAAUGCAUCCCACCACAUGAUGGUGCCUGAAGAGCCUUGGUUUUUUG [G19U G39U G48A A111G] — lower, -4.12
- GACCAAUCUGCCCUCAGAGCUCGAGAACAUCUUCGGAUGCAGAGCAGGCAGGCUUCGGUCGCGCGAUAGCGCCAACGUCCUCAACCUCCAAUGCAUCCCACCACAUGAUGAUGCCUGAAGAGCCUUGGAUUUUUG [G45C G60C U129A] — lower, -2.68
- GACCAAUCUGCCCUCAGAGCUCGAGAACAUCUUCGGAUGCAGAGGAGGCAGGCUUCGGUGGCGCGAUAGCGCCAACGUCCUCAACCUCCAAUGCAUCCCACCAAAUGAUGAUGCCUGAAGAGUCUUGUUAUUUUG [C104A C123U G128U U130A] — lower, -1.35
- GAUCAACCUGCCCUCAGCGCUCGAGAACAUCUUCGGAUGCAGAGGAGGCAGACUUCGGUGGCGCGAUAGCGCCAACGUCCUCAACCUCCAAUGAAUCCCACCACAUGAUGAUGCCUGAAGAGCCUUGGUUUUUUG [C3U U7C A18C G52A C94A] — lower, -5.04
